According to US10745461B2, “Pulsed introduction of low-dose RANKL as a therapy for diet-induced atherosclerosis” (Saint Louis University, priority 2015, dated 2020):
“Also recorded” adds a separate entry of the source.

Experiments:
DLL4 = DLL4 expression in mature osteoclasts by qRT-PCR; type: cell-based, mouse
Text: DLL-4 expression is repressed in the presence of […] and IL-17 but can be de-repressed by RANKL. Having identified that DLL4 was required for osteoclasts to induce Foxp3 expression in CD8+ T cells we next tested if DLL-4 expression was affected by pro-inflammatory cytokines. […] As RANKL induced DLL4 in osteoclast precursors, it was hypothesized that adding additional RANKL may overcome the repression of DLL4 by TNFα. To assess the reversibility of DLL4 expression, mature osteoclasts were cultured overnight in 50 ng/ml RANKL and 20 ng/ml […], and then additional RANKL was added to the culture media (while maintaining 20 ng/ml TNFα) as shown in FIG. 5E. Indeed, addition of RANKL overcomes (within 24 hours) the repression of DLL4 by TNFα as assessed by qRT-PCR. […] The experiment was performed as above, but in this case FoxP3 induction in OT-I CD8 T-cells in the presence of OVA and either 10 ng/ml or 20 ng/ml TNFα was measured.
Osteoclasts seeded on day 4 at 1.5×10^6 cells/ml were used in all experiments. RNA was isolated at time point described in Figure legends. 10 to 50 ng of RNA was used for first-strand cDNA synthesis in 50 μL reaction per kit instructions (Superscript III cDNA synthesis system; Invitrogen). In all cases 10% of the cDNA product was used in a 50 μL PCR reaction that contained 10 μM each forward and reverse primers. For quantitative PCR (qPCR) SYBR green system (Invitrogen) was used. Otherwise, cDNA was amplified (25 cycles) and the products resolved on 1.2% agarose gel and visualized by ethidium bromide staining.

ovariectomized mice [1] = assay: Low dose RANKL in ovariectomized mice (TcREG, serum CTX, μCT, bone formation); type: in vivo
Experimental: Representative FACS contour plots are shown on the first and second panel and the distribution (N=8 mice per group) is shown in the third panel. […] In these experiments (panels C-F), we used ex vivo generated TcREG as a positive control/comparator. […] Arrows are shown to emphasize the distance between dyes.
it was then determined that RANKL induces functional TcREG in ovariectomized mice. Having shown that RANKL could restore the ability of osteoclasts to induce FoxP3 expression in the presence of TNFα in vitro, we tested the ability of RANKL to induce TcREG in ovariectomized mice, as proof of principle for de-repression by increased levels of RANKL in pro-inflammatory environment. Again, a dose of RANKL that induced the highest levels of TcREG in vivo (FIG. 1A) was used. Administration of love dose RANKL to ovariectomized mice increased TcREG numbers by an average of 1.8-fold (FIG. 6A). To determine whether this increase in TcREG numbers affected bone resorption in ovariectomized mice, levels of bone resorption and bone formation rates in these (low-dose) RANKL-treated mice were measured. As it has been previously established that ex vivo generated OC-iTcREG limit bone resorption, increased bone mass, decreased activated effector T-cells, and increases bone formation and mineral apposition rates, this treatment was used as a benchmark in these experiments.
Bilateral ovariectomy was performed on 12-14 week old mice. Mice were anesthetized using 2.5% isoflurane to initiate anesthesia, and 1% for maintenance. The ovaries were accessed through a single incision in the skin, and exteriorized through muscle wall on each side. Each ovary was clamped using hemostat and removed by a single cut. Skin staples (3M) were used to close the skin incision. To minimize discomfort post-surgery, 0.025 mg/kg Buprenorphine was administered subcutaneously. Zoledronate (Selleck Chemicals) was administered at 30 μg/kg via tail vein.
Food was withdrawn 6 to 10 hours prior to bleeding. Peripheral blood (100 to 200 μL) obtained via sub-mandibular vein, was allowed to clot for 2 hours at room temperature and serum collected by spinning down the cell pellet. Serum C-terminal telopeptide of type 1 collagen (serum CTX) was measured using ELISA according to the manufacturer's instructions (Immunodiagnostic Systems, Plc)
The bones were scanned in μCT40 (Scanco Medical) at 55 kVp, 145 μA, and resolution of 16 μm. Gauss sigma of 1.2, Gauss support of 2, lower threshold of 237, and upper threshold of 1000 were used for all the analysis. Regions of interest were selected 50 slices below the growth plate of the proximal tibia to evaluate the trabecular compartment. Bone mineral density was obtained by quantitative μCT using Scanco Phantoms for calibration^49. All μCT data and bone histomorphometry data was collected and analyzed by C.Y, who was blinded to the treatment performed on the mouse samples.

ovariectomized mice [2] = assay: Low-dose RANKL at various times post-OVX in C57BL/6J mice; type: in vivo; settings: for TcREG induction (flow-cytometry, femora): OVX C57BL/6J, two doses 0.125 mg/kg 24 hours apart, 10 days after first treatment, 2, 3, 6, 8 weeks post-OVX, 0.125 mg/kg
Experimental: FIGS. 9E-9F provide for examples of a low-dose RANKL treatment in a mouse model. All mice (C57BL/6J) were sham-operated (S) or ovariectomized (OVX) at 12 weeks of age. At time indicated after OVX, two doses of RANKL (0.125 mg/kg) were administered 24 hours apart 10 days after first treatment, mice were sacrificed. […] Representative images of the proximal tibia are shown from 3 weeks post-OVX in FIG. 9E. […] Representative images from the double-labeled femur (calcein green and alizarin red) from each group are shown. Arrows are shown to emphasize the distance between dyes. Data from 6 to 12 mice per group. For figure reference; ****=P<1×10^−4; ***=P<1×10^−3; **=P<0.01; *=P<0.05 and NS=not statistically significant.

B1: receptor activator of NF-κB ligand (protein, UniProt O35235 139-316, looked up)
Tumor necrosis factor ligand …: FSGAPAMMEGSWLDVAQRGKPEAQPFAHLTINAASIPSGSHKVTLSSWYHDRGWAKISNMTLSNGKLRVNQDGFYYLYANICFRHHETSGSVPTDYLQLMVYVVKTSIKIPSSHNLMKGGSTKNWSGNSEFHFYSINVGGFFKLRAGEEISIQVSNPSLLDPDQDATYFGAFKVQDID
modifications: GST tag
- time for RANKL to overcome the repression of DLL4 by TNFα (DLL4; 20 ng/ml TNFα): ≤ 24 h
- DLL4 expression after additional RANKL (DLL4; mature osteoclasts, 50 ng/ml RANKL and 20 ng/ml TNFα maintained): increased the expression of DLL4; also recorded: overcomes
- osteoclasts occupying bone (ovariectomized mice [1]): fewer osteoclasts occupying bone
- overall effectiveness of treatment (ovariectomized mice [1]): more effective treatment than OC-iTcREG and the bisphosphonate Zoledronic acid by all measurable criteria
- bone mass and bone mineral density (μCT) (ovariectomized mice [1]; comparator OC-iTcREG): more bone mass and bone mineral density relative to the OC-iTcREG treated mice
- serum CTX (ovariectomized mice [1]; comparator OC-iTcREG, listed as low dose RANKL): lower levels of serum CTX compared to mice treated with OC-iTcREG
- serum CTX (ovariectomized mice [1]; comparator OC-iTcREG, listed as low-dose RANKL): serum CTX levels decreased
- bone formation and mineral apposition rates (ovariectomized mice [1]; comparators OC-iTcREG, Zoledronate, listed as low dose RANKL): to a greater extent than Zoledronate and ex vivo generated TcREG; also recorded: increase bone formation and mineral apposition rates than OC-iTcREG treated mice
- TcREG induction in bone marrow (ovariectomized mice [1]; intraperitoneal 0.125 mg/kg): induced TcREG in the bone marrow of ovariectomized mice
- increase in TcREG numbers (average) (ovariectomized mice [1]; low dose RANKL): 1.8 fold
- TcREG induction (flow-cytometry, femora) (ovariectomized mice [2]; listed as Low-dose RANKL): induced TcREG
- TcREG induction (flow-cytometry, femora) (ovariectomized mice [2]; listed as low-dose RANKL): can induce TcREG at two, three, six and eight-weeks post-ovariectomy
- bone mass of the proximal tibia by μCT (ovariectomized mice [2]; as E20): increased bone mass of the proximal tibia
- mineral apposition and bone formation rate (dynamic histomorphometry) (ovariectomized mice [2]; as E20): increased mineral apposition (left panel) and bone formation rate
- proinflammatory effector cells in the femora (ovariectomized mice [2]; as E20): decreased proinflammatory effector cells in the femora
- serum CTX levels (ovariectomized mice [2]; as E20): decreased serum CTX levels
